Data as given in publication PMC12480839, “Selective agonists of KIR and NKG2A to evade missing self response of natural killer cells” (Scientific Reports, 2025).

Experiments:
[1] = molecular target: T1, recombinant KIR2DL3 protein (flow cytometry binding assay) (UniProt P43628); assay: flow cytometry on cells; recombinant receptor proteins at 0.1 µM in autoMACS Running Buffer added to 1 × 10^4 K562 cells expressing the membrane-bound scFv, 4 °C, 90 min; detected with APC anti-human IgG Fc antibody; median fluorescence normalised to control K562 cells; settings: one partner purified
T1 construct: KIR2DL3; In the functional rows the receptor was whole KIR2DL3*001 expressed on NK-92 cells

[2] = molecular target: T2, recombinant KIR2DL2 protein (flow cytometry binding assay) (UniProt P43627); assay: as above; settings: one partner purified
T2 construct: KIR2DL2
T2 sequence (P43627 22-245): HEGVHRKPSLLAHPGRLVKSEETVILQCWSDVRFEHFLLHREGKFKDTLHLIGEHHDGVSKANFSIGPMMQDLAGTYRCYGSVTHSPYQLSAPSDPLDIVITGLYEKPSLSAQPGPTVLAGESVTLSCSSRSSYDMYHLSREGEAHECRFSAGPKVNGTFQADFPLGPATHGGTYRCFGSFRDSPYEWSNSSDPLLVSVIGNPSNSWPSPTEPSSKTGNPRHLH

T1 sequence (P43628 22-245): as the sequence (P43627 22-245) above, with R16P, E35Q, C148R, I200T, K216E counted along it

- binding result [1]: binds
- binding result [2]: binds
B1: membrane-bound KIR2DL2/3 agonist 61 scFv expressed on K562 cells (scFv, V domains shown)
VH: QVQLVQSGAEVKKPGSSVKVSCKASGGTFSSFAISWVRQAPGQGLEWMGGIIPIFGTANYAQKFQGRVTITADESTSTAYMELSSLRSEDTAVYYCARVSGTTGGYYYGMDVWGQGTLVTVSS
VL: AIRMTQSPSSVSASVGDRVTITCRASQGIGNWLAWYQQKPGRAPKLLISTASSLQSGVPSRFSGGGSGRGFTLTISSLQLEDFATYYCQQSYITPWTFGQGTKVEIK
notes: (G4S)3 linker between the two scFv chains; second variable domain of agonist 61; Made with a CD8 signal peptide; firefly luciferase follows across a T2A peptide; also called scFv 61; KIR2DL2/3-specific scFv; source: K562 cells, transduced, on the cell surface; not shown: truncated human CD8 (CD8 hinge), C-terminal, kept
